Our source for the Kd and Ki values is paper PMC4472604.

What all share (experiment): radioligand
Holding throughout (conditions): modification not given

Assay [1] addresses T1, DOR (Mus musculus), P32300.
T1 chain: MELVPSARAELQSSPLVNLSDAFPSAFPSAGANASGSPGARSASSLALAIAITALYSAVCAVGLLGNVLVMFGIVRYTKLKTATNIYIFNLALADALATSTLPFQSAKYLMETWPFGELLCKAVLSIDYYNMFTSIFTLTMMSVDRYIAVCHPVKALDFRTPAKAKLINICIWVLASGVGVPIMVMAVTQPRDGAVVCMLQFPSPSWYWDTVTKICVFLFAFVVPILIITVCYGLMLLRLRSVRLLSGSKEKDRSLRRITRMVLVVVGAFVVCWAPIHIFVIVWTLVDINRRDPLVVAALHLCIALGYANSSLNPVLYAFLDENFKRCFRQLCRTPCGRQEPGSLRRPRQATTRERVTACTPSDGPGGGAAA

Assay [2] addresses T2, 6TM/E11 6TM/E11 splice variant (Mus musculus), P42866.
T2 chain: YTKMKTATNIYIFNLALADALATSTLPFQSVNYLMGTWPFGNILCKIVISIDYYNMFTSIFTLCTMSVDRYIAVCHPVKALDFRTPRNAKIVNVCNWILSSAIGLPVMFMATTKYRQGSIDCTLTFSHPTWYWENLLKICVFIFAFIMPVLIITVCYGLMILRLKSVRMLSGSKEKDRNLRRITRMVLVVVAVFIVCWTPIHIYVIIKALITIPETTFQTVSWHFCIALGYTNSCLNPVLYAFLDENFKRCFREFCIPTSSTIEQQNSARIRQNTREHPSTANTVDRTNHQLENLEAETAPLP

Assay [3] addresses T3, KOR (Mus musculus), P33534.
T3 chain: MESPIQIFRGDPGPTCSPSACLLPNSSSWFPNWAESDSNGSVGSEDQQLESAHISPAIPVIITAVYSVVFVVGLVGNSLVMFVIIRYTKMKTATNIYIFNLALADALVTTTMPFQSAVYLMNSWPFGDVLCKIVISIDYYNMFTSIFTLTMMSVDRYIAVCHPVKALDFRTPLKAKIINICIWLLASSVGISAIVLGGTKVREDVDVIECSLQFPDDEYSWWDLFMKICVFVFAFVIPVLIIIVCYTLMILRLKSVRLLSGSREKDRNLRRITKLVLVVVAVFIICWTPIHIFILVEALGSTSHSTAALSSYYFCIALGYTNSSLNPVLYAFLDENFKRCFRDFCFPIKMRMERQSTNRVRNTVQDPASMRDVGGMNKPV

The target in assay [4] is MOR (Mus musculus), P42866.
MOR (Mus musculus), P42866, sequence (P42866 whole entry): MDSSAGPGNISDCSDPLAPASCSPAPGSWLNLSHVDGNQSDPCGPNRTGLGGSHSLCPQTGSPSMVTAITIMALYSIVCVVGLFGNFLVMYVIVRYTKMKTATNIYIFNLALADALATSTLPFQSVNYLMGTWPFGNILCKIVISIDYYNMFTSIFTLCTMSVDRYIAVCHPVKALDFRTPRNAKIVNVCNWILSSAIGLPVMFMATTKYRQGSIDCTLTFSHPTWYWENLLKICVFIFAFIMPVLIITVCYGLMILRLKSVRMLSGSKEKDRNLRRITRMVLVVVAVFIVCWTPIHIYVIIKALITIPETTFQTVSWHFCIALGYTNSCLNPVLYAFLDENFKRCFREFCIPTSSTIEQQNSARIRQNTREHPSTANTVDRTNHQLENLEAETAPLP

The Kd is the equilibrium constant for the complex coming apart. A lower Kd goes with a tighter complex. On to YAFEIIG [[125I]-3 (125I-GATE3-8)], for which the Kd in assay [1] worked out at 0.11 nM.
One may read the Ki as a measure of affinity in units of concentration, obtained from inhibition or displacement. Regarding YAFEIIG [peptide 1], the Ki in assay [2], in assay [3] and in assay [4] was > 1000 nM in each case.
As to YAFEVVG [[D-Ala2]deltorphin II], the Ki in assay [2], in assay [3] and in assay [4] was > 1000 nM throughout.
